Data taken from patent US20150329642A1 (Genmab, published 2015).
“And” between values parts separate entries of the source, which are not always exact repeats. Equal entries are not always repeated.

Columns and labels:
[1] = molecular target: T1, human c-Met, membrane-bound on cells (human, UniProt P08581 25-1390); experiment: flow cytometry on A431 cells (PE goat anti-human IgG); top panel
T1 construct: whole, on cells; A431 cells carry on average 30,000 copies of c-Met per cell (Qifi); also called c-Met expressed on A431 cells; c-Met on A549 cells
Procedure: (§1) The binding of anti-c-Met antibodies and monovalent forms thereof (also termed “UniBody molecules” herein, see Example 5) to A431 cells expressing membrane-bound c-Met (purchased at ATCC, CRL-1555) was tested using flow cytometry (FACS Canto II, BD Biosciences). […] Binding of anti-c-Met antibodies and UniBody molecules was detected using a Phycoerythrin-conjugated goat-anti-human IgG antibody (Jackson). IgG1-5D5 was used as positive control antibody, and HuMab-KLH was used as isotype control antibody. EC₅₀ values were determined by means of non-linear regression (sigmoidal dose-response with variable slope) using GraphPad Prism V4.03 software (GraphPad Software, San Diego, Calif., USA).
(§2) Also maximum binding levels were unchanged between IgG1's and UniBody molecules. For antibodies 005, 006, 008, 035, 045 and 058, on the other hand, a more than 2-fold […] as well as a decrease in maximum binding level was observed when comparing IgG1 with their UniBody counterpart. This was most likely due to the […] (Kd) of these antibodies (see Example 14).

[2] = molecular target: T1, human c-Met, membrane-bound on cells; experiment: flow cytometry on A431 cells (PE goat anti-human IgG); third panel; curve not saturated
Procedure: as §1, §2

[3] = molecular target: T1, human c-Met, membrane-bound on cells; experiment: flow cytometry on A431 cells (PE goat anti-human IgG); third panel
Procedure: as §1, §2

[4] = molecular target: T2, recombinant human c-Met extracellular domain (R&D systems) (human, UniProt P08581 25-932); experiment: competition ELISA, residual Europium-HGF signal at 615 nm at the lower plateau of the fit; sheet prints no competing mAb ~66000, no HGF-Europium ~600; lower panel
T2 construct: extracellular domain; Bought reagent; also called coated extracellular domain of c-Met; recombinant c-Met
Procedure: (§3) ELISA wells were coated overnight at 4° C. with 0.5 μg/mL recombinant human c-Met extracellular domain (R&D systems, Minneapolis, USA) diluted in PBS. Next, the ELISA wells were washed with PBST (PBS supplemented with 0.05% Tween-20 [Sigma-Aldrich, Zwijndrecht, The Netherlands]) and blocked for one hour at room temperature (RT) with PBST supplemented with 2% (v/v) chicken serum (Gibco, Paisley, Scotland). […] Mean fluorescence intensity at 615 nm was measured using the EnVision 2101 Multilabel reader (PerkinElmer) applying the following settings: Lance/Delfia dual mirror, emission filter 615, excitation filter 340 nm, delay time 400 μs, window 400 μs, 100 flashes, 2000 μs per cycle and bidirectional row-by-row reading. To determine IC₅₀ values, the binding curves were analyzed with non-linear regression (sigmoidal dose-response with variable slope, top-values constrained to a shared value for all data-sets) using GraphPad Prism V4.03 software (GraphPad Software, San Diego, Calif., USA).
(§4) FIG. 5 depicts representative examples of HGF binding inhibition curves of anti-c-Met antibodies for binding to the extracellular domain of recombinant human c-Met. 5D5 was used as positive control antibody. All anti-c-Met antibodies in the experiment shown were able to compete with Europium^{3±}-conjugated HGF for binding to recombinant c-Met. […] Without adding Europium³⁺-conjugated HGF, roughly ˜600 relative fluorescent units (RFU) were detected, indicating the signal when maximal inhibition is accomplished. When binding of Europium³⁺-conjugated HGF was not inhibited, approximately ˜66,000 RFU were detected.

[5] = molecular target: T2, recombinant human c-Met extracellular …; experiment: competition ELISA on coated recombinant c-Met extracellular domain; blocked ligand Europium-conjugated HGF; column headed EC50 on the sheet, called IC50 in paragraph 270; lower panel
Procedure: as §3, §4

[6] = molecular target: T3, rhHGF R/Fc Chimera (R&D Systems; Cat.358MT/CF) (human, UniProt P08581 25-932); experiment: ELISA on coated rhHGF R/Fc Chimera
T3 construct: Bought reagent; Fc part of the bought chimera not given; not described
Procedure: c-Met binding properties of the mutants were tested in an ELISA. ELISA plate wells were coated overnight at 4° C. with rhHGF R/Fc Chimera (R&D Systems; Cat.358MT/CF) in PBS (1 μg/mL). Next, the wells were washed with PBST (PBS supplemented with 0.05% Tween-20 [Sigma-Aldrich, Zwijndrecht, The Netherlands]) and blocked for one hour at room temperature (RT) with PBSTC (PBST supplemented 2% [v/v] chicken serum [Gibco, Paisley, Scotland]). Subsequently, the wells were washed with PBST and incubated for one hour at RT with the anti-cMet antibodies and variants serially diluted in PBSTC (10 μg/mL in 4-fold dilutions). […] After washing, the reaction was visualized by a 15 min incubation with 2,2′-azino-bis(3-ethylbenzothiazoline-6-sulfonic acid) (ABTS: dilute one ABTS tablet in 50 mL ABTS buffer [Roche Diagnostics, Almere, The Netherlands]) at RT protected from light. The colorization was stopped by adding an equal volume of oxalic acid (Sigma-Aldrich, Zwijndrecht, The Netherlands). […] at 405 nm was measured on a microtiter plate reader (Biotek Instruments, Winooski, USA).

Row | Binder | Bottom [4] [RFU] | IC50 [5] [µg/mL] | also measured
1 | anti-c-Met HuMab 006 (IgG1) (antibody, V domains shown, also called TH1016-006; PC1016-006) VH: QVQLVQSGAEVKKPGSSVKVSCKASGGTFSSFGIGWVRQAPGQGLEWMGRIFPILGTANYAQMFQGRVTITADKSTSTAYMELTSLRSEDTAVYYCARDVGYDSADAFDIWGQGTMVTVSS VL: DIQMTQSPSSLSASVGDRVTITCRASQGISSWLAWYQQKPEKAPKSLIYAASSLQSGVPSRFSGSGSGTDFTLTISSLQPEDFATYYCQQYNSYPPTFGQGTKVEIK | – | – | EC50 [1]: 2.32 nM
2 | IgG1-024 (antibody, V domains shown, also called TH1016-024; PC1016-024) VH: EVQLLESGGGLVQPGGSLRLSCVASGFTFSSYAMSWVRQAPGKGLEWVSAISGSSGGSTYYVDSVKGRFTISRANSKNTLYLQMNSLRAEDTAVYYCAKDLDRGWMGYFGYWGQGTLVTVSS VL: DIQMTQSPSSVSASVGDRVTITCRASQGISSWLAWYQHKPGKAPKLLIYAASSLQSGVPSRFSGSGSGTDFTLTISSLQPEDFATYYCQQANSFPTFGQGTRLEIK | – | – | EC50 [2]: ~3.19 nM
3 | anti-c-Met HuMab 035 (IgG1) (antibody, V domains shown, also called P1016-035; TH1016-035-D09) VH: EVQLVQSGAEVKKPGESLKISCKGSGYSFTSYWIGWVRQMPGKGLEWMGIIYPGDSDTRYSPSFQGQVTISADKSISTAYLQWNSLKASDTAMYYCARQEITGEFDYWGQGTLVTVSS VL: AIQLTQSPSSLSASVGDRVTITCRASQGISSALAWYQQKPGKAPKLLIYDASSLESGVPSRFSGSGSGTDFTLTISSLQPEDFATYYCQQFNSYPMYTFGQGTKLEIK | – | – | EC50 [3]: 1.78 nM
4 | anti-c-Met HuMab 045 (IgG1) (antibody, V domains shown, also called TH1016-045; PC1016-045) VH: EVQLLESGGGLVQPGGSLRLSCAASGFTFSSYAMSWVRQAPGKGLEWVSVISGSGGITYYADSVKGRFTISRDNSKNTLYLQMNSLRAEDTAVYYCARDRGWGSDYWGQGTLVTVSS VL: EIVLTQSPATLSLSPGERATLSCRASQSVSSYLAWYQQKPGQAPRLLIYDASNRATGIPARFSGSGSGTDFTLTISSLEPEDFAVYYCQQRSNWPFTFGPGTKVDIK | – | – | EC50 [3]: 0.692 nM
5 | IgG1-1016-069 (antibody, V domains shown, also called clone 069; TH1016-069) VH: QVQLVQSGAEVKKPGASVKVSCETSGYTFTSYGISWVRQAPGHGLEWMGWISAYNGYTNYAQKLQGRVTMTTDTSTSTAYMELRSLRSDDTAVYYCARDLRGTNYFDYWGQGTLVTVSS VL: DIQMTQSPSSVSASVGDRVTITCRASQGISNWLAWFQHKPGKAPKLLIYAASSLLSGVPSRFSGSGSGTDFTLTISSLQPEDFATYYCQQANSFPITFGQGTRLEIK | 15000 | 0.0267 | EC50 [6]: 0.0495 µg/mL and 0.0454 µg/mL
6 | anti-c-Met HuMab 181 (IgG1) (antibody, V domains shown, also called TH1016-181; PC1016-181) VH: QVQLVQSGAEVKKPGASVKVSCKASGYTFTSYGISWVRQAPGQGLEWMGWISTYNGYTNYAQKLQGRVTMTTDTSTSTAYMELRSLRSDDTAVYYCARDLRGTAYFDYWGQGTLVTVSS VL: DIQMTQSPSSVSASVGDRVTITCRASQGISNWLAWYQHKPGKAPKLLIYAASSLLSGVPSRFSGSGSGTDFTLTISSLQPEDFATYYCQQANSFPITFGQGTRLEIK | 16300 | 0.0103 | –
7 | anti-c-Met HuMab 098 (IgG1) (antibody, V domains shown, also called TH1016-098; PC1016-098) VH: QVQLVQSGAEVKKPGASVKVSCKASGYTFTNFGISWVRQAPGQGLEWMGWISAFNGHTDYSQKVQGRVTMTTDTSTSTAYMELRSLRSDDTAVFYCARSHYYGSGSPFDYWGQGTLVTVSS VL: DIQMTQSPSSLSASVGDRVTITCRASQGISNWLAWYQQKPEKAPKSLIYAASSLQSGVPSRFSGSGSGTDFTLTISSLQPEDFATYYCHQYKSYPWTFGQGTKVEIK | 12700 | 0.0135 | –
8 | anti-c-Met HuMab 101 (IgG1) (antibody, V domains shown) VH: QVQLVQSGGEVKKPGASVKVSCKASGYTFTRHGITWVRQAPGQGLEWMGWISADNGNTNYAQKFQDRVTMTTDTSTSTAYMELRSLRSDDTAVYFCARVFRYFDWLLPYFDYWGQGTLVTVST VL: not shown | 8380 | 0.0558 | –
